Test results from paper PMC5395295.
One block for each substance: values may come before it.

Tests used:
[1] = target: Pleurobrachia collagen IV NC1 domains (collagenase-solubilised NC1 hexamer) (Pleurobrachia (endogenous in whole ctenophore tissue)); experiment: SEC; collagenase digest of whole ctenophore tissue on Superdex 200 10/300 GL; elution compared with native, purified placental basement membrane NC1 hexamer run successively; fractions 12 mL to 16.4 mL blotted with NC1-specific monoclonal antibody (JK-2)
[2] = target: Pleurobrachia collagen IV NC1 domains (collagenase-solubilised NC1 hexamer) (Pleurobrachia (endogenous in whole ctenophore tissue)); experiment: SDS-PAGE under reducing and non-reducing conditions with Western blot; NC1 hexamer fractions from gel filtration; 12% gels, 5% beta-mercaptoethanol or none; for Beroe reduction in TBS with various concentrations of DTT (30 min, 37°C), alkylation with iodoacetamide, non-reducing SDS-PAGE; blot with JK-2
[3] = target: Mnemiopsis collagen IV NC1 domains (collagenase-solubilised NC1 hexamer) (Mnemiopsis (endogenous in whole ctenophore tissue)); experiment: SEC; collagenase digest of whole ctenophore tissue on Superdex 200 10/300 GL; elution compared with native, purified placental basement membrane NC1 hexamer run successively; fractions 12 mL to 16.4 mL blotted with NC1-specific monoclonal antibody (JK-2)
[4] = target: Mnemiopsis collagen IV NC1 domains (collagenase-solubilised NC1 hexamer) (Mnemiopsis (endogenous in whole ctenophore tissue)); experiment: SDS-PAGE under reducing and non-reducing conditions with Western blot; NC1 hexamer fractions from gel filtration; 12% gels, 5% beta-mercaptoethanol or none; for Beroe reduction in TBS with various concentrations of DTT (30 min, 37°C), alkylation with iodoacetamide, non-reducing SDS-PAGE; blot with JK-2
[5] = target: Beroe collagen IV NC1 domains (collagenase-solubilised NC1 hexamer) (Beroe (endogenous in whole ctenophore tissue)); experiment: SEC; collagenase digest of whole ctenophore tissue on Superdex 200 10/300 GL; elution compared with native, purified placental basement membrane NC1 hexamer run successively; fractions 12 mL to 16.4 mL blotted with NC1-specific monoclonal antibody (JK-2)
[6] = target: Beroe collagen IV NC1 domains (collagenase-solubilised NC1 hexamer) (Beroe (endogenous in whole ctenophore tissue)); experiment: SDS-PAGE under reducing and non-reducing conditions with Western blot; NC1 hexamer fractions from gel filtration; 12% gels, 5% beta-mercaptoethanol or none; for Beroe reduction in TBS with various concentrations of DTT (30 min, 37°C), alkylation with iodoacetamide, non-reducing SDS-PAGE; blot with JK-2

stoichiometry N [1]: 6
stoichiometry N [2]: 2
Substance: Pleurobrachia collagen IV NC1 domains (collagenase-solubilised NC1 hexamer)

stoichiometry N [3]: 6
stoichiometry N [4]: 2
Substance: Mnemiopsis collagen IV NC1 domains (collagenase-solubilised NC1 hexamer)

stoichiometry N [5]: 6
stoichiometry N [6]: 2
Substance: Beroe collagen IV NC1 domains (collagenase-solubilised NC1 hexamer)
